These are literature values, as cited in article PMC4161438 (PLoS Pathogens, 2014).

One data set deals with inflammation. The settings on record: ref [14]; cited from earlier work. The source says:
In fact, platelets […] ...

The next data set concerns the target T1, elastase (Homo sapiens, UniProt P08246).
T1 construct: purchased Elastin Products Company, Inc. (Owensville, MO, USA)
T1 sequence (P08246 30-267): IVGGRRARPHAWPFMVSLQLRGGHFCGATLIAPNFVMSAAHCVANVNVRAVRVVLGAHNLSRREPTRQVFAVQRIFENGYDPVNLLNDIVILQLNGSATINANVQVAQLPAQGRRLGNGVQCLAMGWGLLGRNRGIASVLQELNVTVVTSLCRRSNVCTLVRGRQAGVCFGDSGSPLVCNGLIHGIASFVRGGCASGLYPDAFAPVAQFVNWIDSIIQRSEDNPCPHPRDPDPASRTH
As to conditions: pathologic conditions associated with neutrophil dysfunction; ref [22]; cited from earlier work. The source says:
Neutrophils also release granule contents containing enzymes such as elastase, proteinase-3, and cathepsin G. Elastase, a particularly inflammatory enzyme, interferes with thrombomodulin function, and cleaves TF pathway inhibitor (TFPI), the physiological inhibitor of the extrinsic pathway. […] Elastase also induces proteinase-activated receptor activation, contributes to cytokine production and processing, inactivates metalloprotease inhibitors, deg ...

A further data set relates to NETs formation. Set-up: method as in 2 sources, one per row (each row's own in cited_ref): ref [38], [55] = [38]; PMID 20974816; doi:10.1083/jcb.201006052; 38 Papayannopoulos V , Metzler KD , Hakkim A , Zychlinsky A ( 2010 ) Neutrophil elastase and myeloperoxidase regulate the formation of neutrophil extracellular traps . J Cell Biol 191 : 677 – 691 . 20 || [55]; PMID 23635526; doi:10.1159/000348676; 55 Braian C , Hogea V , Stendahl O ( 2013 ) Mycobacterium tuberculosis- induced neutrophil extracellular traps activate human macrophages . J Innate Immun 5 : 591 – 602 . 23635526 10.1159/000348676 PM ||| ref [56] = [56]; PMID 23002442; doi:10.4049/jimmunol.1201167; 56 Farley K , Stolley JM , Zhao P , Cooley J , Remold-O'Donnell E ( 2012 ) A serpinB1 regulatory mechanism is essential for restricting neutrophil extracellular trap generation . J Immunol 189 : 4574. The settings on record: exogenously added, internalized, translocates into nucleus; ref [56]; cited from earlier work.

Where no end group is shown, it is not given here.

On to “Elafin: potent elastase inhibitor purified from bronchial secretions (AQEPVKGPVSTKPGSCPIILIRCAMLNPPNRCLKDTDCPGIKKCCEGSCGMACFVPQ; ends and bridges not checked; cysteine pairing not given here; UniProt P19957 61-117, looked up)”, for which the “inflammation in several in vivo models” value in the data set on inflammation is recorded as “blocks inflammation”. Moreover, the clinical trial results in the data set with elastase is on record as “mixed results”.

B1: serpin B1: exogenously added elastase inhibitor (protein, UniProt P30740 1-379, looked up)
Leukocyte elastase inhibitor: MEQLSSANTRFALDLFLALSENNPAGNIFISPFSISSAMAMVFLGTRGNTAAQLSKTFHFNTVEEVHSRFQSLNADINKRGASYILKLANRLYGEKTYNFLPEFLVSTQKTYGADLASVDFQHASEDARKTINQWVKGQTEGKIPELLASGMVDNMTKLVLVNAIYFKGNWKDKFMKEATTNAPFRLNKKDRKTVKMMYQKKKFAYGYIEDLKCRVLELPYQGEELSMVILLPDDIEDESTGLKKIEEQLTLEKLHEWTKPENLDFIEVNVSLPRFKLEESYTLNSDLARLGVQDLFNSSKADLSGMSGARDIFISKIVHKSFVEVNEEGTEAAAATAGIATFCMLMPEENFTADHPFLFFIRHNSSGSILFLGRFSSP
B1: the NETs formation entry in the data set with NETs formation is recorded as “inhibits NETs formation”.
